Positions count from the first letter of the chain named. Each block holds one binder with its values, some of them ahead of it.
What was measured:
[1] = target: T1, human CD4, cell-expressed (human, UniProt P01730 26-458); experiment: flow cytometry on MOLM-13 cells (CD4, no IL12R or IL23R), lower left panel
T1 construct: whole, on cells

[2] = target: T2, human IL12Rβ1, cell-expressed (human, UniProt P42701 24-662); experiment: cell-based or functional assay
[3] = target: T3, human IL12Rβ1 extracellular domain Fc-fusion (human, UniProt P42701 24-545); experiment: competition ELISA, coated IL-12 + IL12Rβ1-Fc
T3 construct: extracellular domain; bought; also called IL12Rβ1-Fc; hIL-12Rβ1-Fc; not shown: Fc part, captured by anti-hIgG

[4] = target: T3, human IL12Rβ1 extracellular domain …; experiment: competition ELISA, ratio to monovalent IL12Rb1#30
[5] = target: T2, human IL12Rβ1, cell-expressed; experiment: cell-based or functional assay; remark: listed apart in the source
[6] = target: T3, human IL12Rβ1 extracellular domain …; experiment: competition ELISA, coated IL-23 + IL12Rβ1-Fc
[7] = target: T1, human CD4, cell-expressed; experiment: flow cytometry on activated T cells of donor D838 (very high CD4, moderate IL12R), upper right panel
[8] = target: T3, human IL12Rβ1 extracellular domain …; experiment: competition ELISA, ratio to monovalent IL12Rb1#30; remark: listed apart in the source
[9] = target: T3, human IL12Rβ1 extracellular domain …; experiment: competition ELISA, ratio to monovalent IL12Rb1#31
[10] = target: T3, human IL12Rβ1 extracellular domain …; experiment: competition ELISA, ratio to monovalent IL12Rb1#31; remark: listed apart in the source
[11] = target: T4, human IL-23R extracellular domain Fc-fusion (human, UniProt Q5VWK5 24-355); experiment: competition ELISA, coated IL-23 + IL-23R-Fc
T4 construct: extracellular domain; bought; also called IL-23R-Fc
T4 sequence (looked up): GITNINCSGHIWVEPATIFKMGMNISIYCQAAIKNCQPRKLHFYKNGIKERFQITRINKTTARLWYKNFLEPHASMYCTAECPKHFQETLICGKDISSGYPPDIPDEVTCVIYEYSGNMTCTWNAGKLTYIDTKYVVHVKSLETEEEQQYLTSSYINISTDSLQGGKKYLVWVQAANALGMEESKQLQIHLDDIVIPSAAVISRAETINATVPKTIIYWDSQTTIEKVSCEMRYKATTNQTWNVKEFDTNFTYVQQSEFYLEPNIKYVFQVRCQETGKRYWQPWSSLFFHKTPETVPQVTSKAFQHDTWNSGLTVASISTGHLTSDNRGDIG

[12] = target: T1, human CD4, cell-expressed; experiment: flow cytometry on activated T cells of donor D838 (very high CD4), lower left panel
[13] = target: T1, human CD4, cell-expressed; experiment: flow cytometry on MOLM-13 cells (CD4, no IL12R or IL23R), upper right panel
[14] = target: T4, human IL-23R extracellular domain …; experiment: competition ELISA, ratio to monovalent IL23R#20
[15] = target: T5, human IL-23R, cell-expressed (human, UniProt Q5VWK5 24-629); experiment: cell-based or functional assay
T5 sequence (looked up): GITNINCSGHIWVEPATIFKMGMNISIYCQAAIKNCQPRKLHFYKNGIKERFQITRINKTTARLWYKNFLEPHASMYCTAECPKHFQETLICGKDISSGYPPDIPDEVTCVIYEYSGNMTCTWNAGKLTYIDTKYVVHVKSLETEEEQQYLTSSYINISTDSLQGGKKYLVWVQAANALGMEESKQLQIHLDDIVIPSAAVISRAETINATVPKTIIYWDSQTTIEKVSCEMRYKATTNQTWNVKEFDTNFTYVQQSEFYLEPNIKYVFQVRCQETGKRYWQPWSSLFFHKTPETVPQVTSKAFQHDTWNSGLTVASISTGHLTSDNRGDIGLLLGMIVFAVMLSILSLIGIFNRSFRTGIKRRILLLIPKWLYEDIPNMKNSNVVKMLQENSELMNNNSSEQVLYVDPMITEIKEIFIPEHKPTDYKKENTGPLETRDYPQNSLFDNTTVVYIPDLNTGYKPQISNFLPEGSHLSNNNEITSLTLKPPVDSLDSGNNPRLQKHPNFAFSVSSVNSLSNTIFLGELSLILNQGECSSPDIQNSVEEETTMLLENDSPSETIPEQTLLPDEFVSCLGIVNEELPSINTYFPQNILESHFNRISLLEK

B1: IL12Rb1#30-35GS-CD4#8 (bispecific antibody)
chain: EVQLVESGGGLVQTGGSLRLSCAASGRTPRLVAMGWFRQTPGKEREFVGEIILSKGFTYYADSVKGRFTISRVNAKNTITMYLQMNSLKSEDTAVYYCAGRQNWSGSPARTNEYEYWGQGTLVTVSSGGGGSGGGGSGGGGSGGGGSGGGGSGGGGSGGGGSEVQLVESGGGSVQPGGSLTLSCGTSGRTFNVMGWFRQAPGKEREFVAAVRWSSTGIYYTQYADSVKSRFTISRDNAKNTVYLEMNSLKPEDTAVYYCAADTYNSNPARWDGYDFRGQGTLVTVSS
notes: also called BI#46; T023200046
EC50 (read off the curve) [1]: ~1 nM
IC50, IFNγ release, PBMC D840 [2]: 0.45 nM
IC50, IFNγ release, T cells D839 [2]: 0.29 nM
fold ctrl, IFNγ release, PBMC D840 [2]: 38 fold
fold ctrl, IFNγ release, T cells D839 [2]: 552 fold
IC50 [3]: 6.2 nM
fold ctrl [4]: 0.6 fold
IC50, IL-17 release, PBMC D840 [5]: 0.016 nM
fold ctrl, IL-17 release [5]: 875 fold
IC50 [6]: 3 nM
EC50 (read off the curve) [7]: ~1 nM
fold ctrl [8]: 0.5 fold

B3: CD4#8-35GS-IL12Rb1#30 (bispecific antibody)
chain: EVQLVESGGGSVQPGGSLTLSCGTSGRTFNVMGWFRQAPGKEREFVAAVRWSSTGIYYTQYADSVKSRFTISRDNAKNTVYLEMNSLKPEDTAVYYCAADTYNSNPARWDGYDFRGQGTLVTVSSGGGGSGGGGSGGGGSGGGGSGGGGSGGGGSGGGGSEVQLVESGGGLVQTGGSLRLSCAASGRTPRLVAMGWFRQTPGKEREFVGEIILSKGFTYYADSVKGRFTISRVNAKNTITMYLQMNSLKSEDTAVYYCAGRQNWSGSPARTNEYEYWGQGTLVTVSS
notes: also called BI#40; T023200040
EC50 (read off the curve) [1]: ~1 nM
IC50, IFNγ release, PBMC D840 [2]: 0.36 nM
IC50, IFNγ release, T cells D839 [2]: 0.28 nM
fold ctrl, IFNγ release, PBMC D840 [2]: 47 fold
fold ctrl, IFNγ release, T cells D839 [2]: 429 fold
IC50 [3]: 7.3 nM
fold ctrl [4]: 0.5 fold
IC50, IL-17 release, PBMC D840 [5]: 0.035 nM
fold ctrl, IL-17 release [5]: 1630 fold
IC50 [6]: 3.6 nM
EC50 (read off the curve) [7]: ~1 nM
fold ctrl [8]: 0.4 fold

B4: CD4#8-35GS-IL12Rb1#31 (bispecific antibody)
chain: B3 chain with R190S, L191I, V192I, V233A, G260A, S267N, A269T
notes: also called BI#41; T023200041
EC50 (read off the curve) [1]: ~1 nM
fold ctrl [9]: 0.7 fold
IC50, IFNγ release, PBMC D840 [2]: 2.2 nM
IC50, IFNγ release, T cells D839 [2]: 1.7 nM
fold ctrl, IFNγ release, PBMC D840 [2]: 50 fold
IC50 [3]: 28 nM
IC50, IL-17 release, PBMC D840 [5]: 0.17 nM
fold ctrl, IL-17 release [5]: 1710 fold
IC50 [6]: 15 nM
EC50 (read off the curve) [7]: ~1 nM
fold ctrl [10]: 0.8 fold

Now from value to binder:

EC50 (read off the curve) [1]: ~1 nM
fold ctrl [9]: 0.8 fold
IC50, IFNγ release, PBMC D840 [2]: 1.9 nM
IC50, IFNγ release, T cells D839 [2]: 4.1 nM
fold ctrl, IFNγ release, PBMC D840 [2]: 41 fold
IC50 [3]: 24 nM
IC50, IL-17 release, PBMC D840 [5]: 0.23 nM
fold ctrl, IL-17 release [5]: 565 fold
IC50 [6]: 13 nM
EC50 (read off the curve) [7]: ~1 nM
fold ctrl [10]: 0.9 fold
B2: IL12Rb1#31-35GS-CD4#8 (bispecific antibody)
chain: B1 chain with R30S, L31I, V32I, V73A, G100A, S107N, A109T
notes: also called BI#47; T023200047

IC50 [11]: 11 nM
EC50 (read off the curve) [12]: ~1 nM
EC50 (read off the curve) [13]: ~1 nM
fold ctrl [14]: 1.5 fold
B5: IL23R#20-35GS-CD4#8 (bispecific antibody)
chain: EVQLVESGGGLVQAGGSLRLSCAASGRTFSSYAMGWFRQAPGKDREFVAAISWIGESTYYADSVKGRFTISRDNAKNTVYLRMNSLKPEDTAVYYCAADLYYTAYVAAADEYDYWGQGTLVTVSSGGGGSGGGGSGGGGSGGGGSGGGGSGGGGSGGGGSEVQLVESGGGSVQPGGSLTLSCGTSGRTFNVMGWFRQAPGKEREFVAAVRWSSTGIYYTQYADSVKSRFTISRDNAKNTVYLEMNSLKPEDTAVYYCAADTYNSNPARWDGYDFRGQGTLVTVSS
notes: also called BI#43; T023200043

IC50 [11]: 15 nM
IC50, IL-17 release, PBMC D840 [15]: 22 nM
EC50 (read off the curve) [12]: ~1 nM
EC50 (read off the curve) [13]: ~1 nM
fold ctrl [14]: 1.1 fold
B6: CD4#8-35GS-IL23R#20 (bispecific antibody)
chain: EVQLVESGGGSVQPGGSLTLSCGTSGRTFNVMGWFRQAPGKEREFVAAVRWSSTGIYYTQYADSVKSRFTISRDNAKNTVYLEMNSLKPEDTAVYYCAADTYNSNPARWDGYDFRGQGTLVTVSSGGGGSGGGGSGGGGSGGGGSGGGGSGGGGSGGGGSEVQLVESGGGLVQAGGSLRLSCAASGRTFSSYAMGWFRQAPGKDREFVAAISWIGESTYYADSVKGRFTISRDNAKNTVYLRMNSLKPEDTAVYYCAADLYYTAYVAAADEYDYWGQGTLVTVSS
notes: also called BI#44; T023200044

From patent US20160251440A1 (Ablynx, published 2016)
